167 variants from publication PMC12102759 can be followed below.

The chains are these.
B1: PAIP1 peptide 124-139 (Polyadenylate-binding protein-interacting protein 1), 16-mer library wild type / PABPC1 PABC (PABPC1 PABC domain, residues 544-623) (parent)
chain 1: LMSKLSVNAPEFYPSG
chain 2: PLTASMLASAPPQEQKQMLGERLFPLIQAMHPTLAGKITGMLLEIDNSELLHMLESPESLRSKVDEAVAVLQAHQAKEAA
B2: PIP5K1C peptide 640-655 (Phosphatidylinositol 4-phosphate 5-kinase type-1 gamma), 16-mer library wild type / TLN1 PTB (TLN1 Phosphotyrosine-binding (PTB) domain, residues 309-401) (parent)
chain 1: FPTDERSWVYSPLHYS
chain 2: GVSFFLVKEKMKGKNKLVPRLLGITKECVMRVDEKTKEVIQEWNLTNIKRWAASPKSFTLDFGDYQDGYYSVQTTEGEQIAQLIAGYIDIILK
B3: AMOTL2 peptide 66-81 (Angiomotin-like protein 2), 16-mer library wild type / TNKS ANK (TNKS 12 ANK repeats, residues 174-649) (parent)
chain 1: LQQATRQEPQGQEHQG
chain 2: TGVPAVSGALRELLEACRNGDVSRVKRLVDAANVNAKDMAGRKSSPLHFAAGFGRKDVVEHLLQMGANVHARDDGGLIPLHNACSFGHAEVVSLLLCQGADPNARDNWNYTPLHEAAIKGKIDVCIVLLQHGADPNIRNTDGKSALDLADPSAKAVLTGEYKKDELLEAARSGNEEKLMALLTPLNVNCHASDGRKSTPLHLAAGYNRVRIVQLLLQHGADVHAKDKGGLVPLHNACSYGHYEVTELLLKHGACVNAMDLWQFTPLHEAASKNRVEVCSLLLSHGADPTLVNCHGKSAVDMAPTPELRERLTYEFKGHSLLQAAREADLAKVKKTLALEIINFKQPQSHETALHCAVASLHPKRKQVTELLLRKGANVNEKNKDFMTPLHVAAERAHNDVMEVLHKHGAKMNALDTLGQTALHRAALAGHLQTCRLLLSYGSDPSIISLQGFTAAQMGNEAVQQILSESTPIRTSD
B4: TPTE2 peptide 92-107 (Phosphatidylinositol 3,4,5-trisphosphate 3-phosphatase TPTE2), 16-mer library wild type / TLN1 PTB (TLN1 Phosphotyrosine-binding (PTB) domain, residues 309-401) (parent)
chain 1: LADLIFTDSKLYIPLE
chain 2: B2 chain 2

The first assay covers variants of B1. The assay can be described thus: proteomic peptide phage display deep mutational scan (ProP-PD DMS): M13 P8 16-mer library selected against immobilised GST-tagged bait for four days (rounds), NGS of the eluted pools per day and pseudo-replica. Particulars: with PABPC1 PABC (PABPC1 PABC domain, residues 544-623); bait immobilised on MaxiSorp plates (10 µg), library pre-cleared on GST, 2 h binding at 4 °C, five washes; one round per day, days 1-4; value from days 2 and 3; keep out of graded; scale: average fractional NGS count over selection days 2 and 3.
Regarding chain 1 S3F, the screen value worked out at 4.71e-05. Still for that read-out and setting: the figure for chain 1 S15L is 0.000141; for chain 1 L5E it is 0.00011.

On to chain 1 L5S, for which the screen value came to 0.

On to chain 1 L5I, for which the screen value is 6.08e-05. As to chain 1 L5V, the screen value turned out to be 0. For chain 1 L5Y, the screen value was found to be 5.13e-05. As for chain 1 L5F, the screen value stood at 7.31e-05. As for chain 1 S6Q, the screen value was determined as 4.7e-05. Consider chain 1 S6K, for which the screen value stood at 0. chain 1 P10V: the screen value was 0.000185.

With chain 1 P10W, the screen value was found to be 0. Still for that read-out and setting: the figure for chain 1 G16L is 0.000165. On the same count and under the same terms, to chain 1 G16P belongs 0.000264; to chain 1 V7M, 0; to chain 1 V7I, 0.00011. On to chain 1 V7L, for which the screen value was found to be 1.45e-05.

chain 1 V7K: the screen value is 0.

Take chain 1 V7T: the screen value worked out at 0.000112. Consider chain 1 K4S, for which the screen value amounted to 0.000112.

As for chain 1 K4F, the screen value is 0.000173.

As to chain 1 K4W, the screen value amounted to 0.000136. Same read-out and setting: the figure for chain 1 Y13N is 3.07e-05; for chain 1 Y13F it is 8.82e-05; for chain 1 Y13P it is 0. The same measure, in the same setting: the figure for chain 1 A9V is 8.33e-05. For chain 1 A9L, the screen value was found to be 0.

For chain 1 A9M, the screen value stood at 0.

Take chain 1 A9G: the screen value was 0. Same read-out and setting: the figure for chain 1 A9T is 0.000154; for chain 1 P14N it is 0; for chain 1 P14F it is 0.000167.

With chain 1 P14S, the screen value stood at 0.000163. Turning to chain 1 P14T, the screen value was determined as 8.32e-05. Still for that read-out and setting: to chain 1 P14H belongs 4.17e-05. With chain 1 E11H, the screen value was 0.000179. With chain 1 E11W, the screen value is 0.

For the variant chain 1 E11L, the screen value came out at 0.000185. Same read-out and setting: the figure for chain 1 F12D is 0; for chain 1 F12A it is 0.

The next assay covers variants of B2. Described as above. Particulars: with TLN1 PTB (TLN1 Phosphotyrosine-binding (PTB) domain, residues 309-401); bait immobilised on MaxiSorp plates (10 µg), library pre-cleared on GST, 2 h binding at 4 °C, five washes; one round per day, days 1-4; value from days 2 and 3; keep out of graded; scale: average fractional NGS count over selection days 2 and 3.
As to chain 1 Y10P, the screen value came to 0.000394. In the case of chain 1 Y10M, the screen value was 0.00032.

On to chain 1 Y10S, for which the screen value came to 0.00342. For the variant chain 1 R6V, the screen value amounted to 0.000984. Still for that read-out and setting: the figure for chain 1 D4Q is 0.000121. Still for that read-out and setting: the figure for chain 1 S7V is 6.47e-05; for chain 1 Y15K it is 0.000895; for chain 1 S16N it is 0.000165. For chain 1 S16H, the screen value worked out at 0.00034.

With chain 1 S16G, the screen value came out at 0.00097. For the variant chain 1 P12T, the screen value turned out to be 0.000179. As to chain 1 V9I, the screen value came to 5.76e-05. Take chain 1 H14G: the screen value was determined as 0.00022.

Another assay covers variants of B3. Described as above. Particulars: with TNKS ANK (TNKS 12 ANK repeats, residues 174-649); bait immobilised on MaxiSorp plates (10 µg), library pre-cleared on GST, 2 h binding at 4 °C, five washes; one round per day, days 1-4; value from days 2 and 3; keep out of graded; scale: average fractional NGS count over selection days 2 and 3.
As for chain 1 Q10R, the screen value was found to be 3.15e-05. chain 1 Q10P: the screen value was determined as 6.1e-05. Regarding chain 1 Q10A, the screen value came out at 2.19e-05.

Turning to chain 1 Q10F, the screen value stood at 0. Consider chain 1 Q10K, for which the screen value was 0. For chain 1 Q10M, the screen value was 4.87e-05. Still for that read-out and setting: the figure for chain 1 Q10T is 3.04e-05. In the case of chain 1 Q10V, the screen value stood at 6.99e-05. Consider chain 1 P9S, for which the screen value turned out to be 0.

With chain 1 P9I, the screen value stood at 6.68e-05.

As for chain 1 P9V, the screen value is 9.22e-05. Still for that read-out and setting: to chain 1 P9G belongs 0. The same measure, in the same setting: to chain 1 P9Y belongs 0; to chain 1 P9L, 0. On the same count and under the same terms, to chain 1 L1R belongs 2.19e-05. On to chain 1 Q7D, for which the screen value came out at 2.19e-05. Regarding chain 1 Q7S, the screen value was found to be 0.000105.

With chain 1 Q7E, the screen value is 2.83e-05. Consider chain 1 Q7R, for which the screen value was found to be 0. The same measure, in the same setting: to chain 1 Q7I belongs 0.0001. In the case of chain 1 H14Y, the screen value was found to be 8.4e-05.

On to chain 1 H14D, for which the screen value came to 0. Consider chain 1 H14T, for which the screen value came to 3.21e-05. Regarding chain 1 H14P, the screen value worked out at 6.39e-05.

chain 1 T5R: the screen value worked out at 0. For chain 1 T5P, the screen value came out at 5.25e-05.

For the variant chain 1 T5K, the screen value is 6.67e-05. On the same count and under the same terms, to chain 1 T5E belongs 5.19e-05; to chain 1 T5A, 2.97e-05. Same read-out and setting: the figure for chain 1 E8N is 0.000167. On the same count and under the same terms, to chain 1 E8I belongs 6.96e-05; to chain 1 E13W, 1.87e-05; to chain 1 E13G, 5.19e-05.

As for chain 1 E13P, the screen value was determined as 3.32e-05. As to chain 1 E13T, the screen value is 1.94e-05. For chain 1 E13D, the screen value came to 6.42e-05. Same read-out and setting: to chain 1 E13F belongs 1.87e-05; to chain 1 E13K, 0; to chain 1 E13R, 0. Still for that read-out and setting: to chain 1 R6K belongs 0; to chain 1 R6S, 6.11e-05. Still for that read-out and setting: the figure for chain 1 R6E is 0; for chain 1 R6L it is 0; for chain 1 Q3E it is 9.57e-05.

chain 1 Q3R: the screen value came to 0. As for chain 1 Q3M, the screen value was 3.03e-05. Turning to chain 1 Q3K, the screen value worked out at 2.25e-05. On to chain 1 Q3I, for which the screen value stood at 0.000108. On the same count and under the same terms, the figure for chain 1 Q15K is 5.01e-05; for chain 1 Q2F it is 3.49e-05. Same read-out and setting: the figure for chain 1 Q2R is 0; for chain 1 Q12T it is 9.71e-05. On the same count and under the same terms, to chain 1 Q12V belongs 6.42e-05. Turning to chain 1 Q12K, the screen value came to 5.3e-05. On the same count and under the same terms, to chain 1 Q12E belongs 4.24e-05. The same measure, in the same setting: to chain 1 Q12N belongs 2.19e-05; to chain 1 Q12G, 3.04e-05.

chain 1 Q12S: the screen value was determined as 5.26e-05. As to chain 1 Q12D, the screen value was determined as 0. As for chain 1 G11L, the screen value stood at 0. On the same count and under the same terms, the figure for chain 1 G11N is 5.06e-05; for chain 1 A4E it is 4.24e-05.

The variants in the next assay derive from B4. The description is as above. The settings on record: with TLN1 PTB (TLN1 Phosphotyrosine-binding (PTB) domain, residues 309-401); bait immobilised on MaxiSorp plates (10 µg), library pre-cleared on GST, 2 h binding at 4 °C, five washes; one round per day, days 1-4; value from days 2 and 3; keep out of graded; scale: average fractional NGS count over selection days 2 and 3.
Take chain 1 K10V: the screen value was 7.83e-05. Still for that read-out and setting: the figure for chain 1 K10W is 6.74e-05; for chain 1 L4R it is 0. On the same count and under the same terms, the figure for chain 1 L4N is 5.11e-05; for chain 1 L4K it is 6.56e-05. With chain 1 F6G, the screen value was 0. On the same count and under the same terms, the figure for chain 1 F6Y is 8.2e-05. Still for that read-out and setting: the figure for chain 1 F6M is 0; for chain 1 F6S it is 0. As for chain 1 F6P, the screen value was 9.98e-05. In the case of chain 1 F6A, the screen value is 0. chain 1 L11W: the screen value worked out at 0. As to chain 1 L11F, the screen value was found to be 0.000112.

With chain 1 L11Y, the screen value was determined as 4.09e-05. In the case of chain 1 L11A, the screen value stood at 6.5e-05. Still for that read-out and setting: the figure for chain 1 L11S is 3.91e-05. On the same count and under the same terms, the figure for chain 1 T7R is 6.19e-05; for chain 1 T7F it is 3.05e-05; for chain 1 T7E it is 8.56e-05. Still for that read-out and setting: the figure for chain 1 T7I is 3.48e-05. In the case of chain 1 T7A, the screen value was determined as 4.1e-05. For chain 1 P14Y, the screen value is 7.88e-05. With chain 1 P14S, the screen value was determined as 2.74e-05. In the case of chain 1 P14M, the screen value turned out to be 0. As for chain 1 P14Q, the screen value was determined as 0. Same read-out and setting: to chain 1 P14R belongs 0.

Consider chain 1 P14E, for which the screen value turned out to be 0. Still for that read-out and setting: to chain 1 P14F belongs 0; to chain 1 D3H, 0.000117. Same read-out and setting: to chain 1 D3A belongs 4.9e-05; to chain 1 D3W, 0. With chain 1 D3F, the screen value was 9.05e-05. Same read-out and setting: the figure for chain 1 D8H is 2.4e-05. The same measure, in the same setting: to chain 1 D8M belongs 0; to chain 1 D8S, 4.41e-05.

As to chain 1 D8V, the screen value was found to be 7.58e-05. On to chain 1 D8K, for which the screen value worked out at 2.8e-05. On the same count and under the same terms, to chain 1 A2F belongs 2.74e-05. For chain 1 A2V, the screen value is 0.000107. Regarding chain 1 L15T, the screen value was 3.85e-05. In the case of chain 1 L15E, the screen value amounted to 6.68e-05. With chain 1 Y12L, the screen value stood at 0. The same measure, in the same setting: to chain 1 Y12Q belongs 0. In the case of chain 1 E16R, the screen value was found to be 3.05e-05. chain 1 S9K: the screen value is 0. Same read-out and setting: to chain 1 I13D belongs 0. Consider chain 1 I13H, for which the screen value is 7.12e-05. The same measure, in the same setting: the figure for chain 1 I13Q is 8.06e-05; for chain 1 I13S it is 9.27e-05. In the case of chain 1 I13M, the screen value was determined as 3.76e-05. Same read-out and setting: the figure for chain 1 I13Y is 5.85e-05; for chain 1 I13W it is 0.000116.
